For data set [1], the target named is mixture of recombinant PP1 isoforms (α, β, and γ; Upstate).

HDAC7-GFP fusion protein, sequence (Q8C2B3 whole entry, the tested form may be a part): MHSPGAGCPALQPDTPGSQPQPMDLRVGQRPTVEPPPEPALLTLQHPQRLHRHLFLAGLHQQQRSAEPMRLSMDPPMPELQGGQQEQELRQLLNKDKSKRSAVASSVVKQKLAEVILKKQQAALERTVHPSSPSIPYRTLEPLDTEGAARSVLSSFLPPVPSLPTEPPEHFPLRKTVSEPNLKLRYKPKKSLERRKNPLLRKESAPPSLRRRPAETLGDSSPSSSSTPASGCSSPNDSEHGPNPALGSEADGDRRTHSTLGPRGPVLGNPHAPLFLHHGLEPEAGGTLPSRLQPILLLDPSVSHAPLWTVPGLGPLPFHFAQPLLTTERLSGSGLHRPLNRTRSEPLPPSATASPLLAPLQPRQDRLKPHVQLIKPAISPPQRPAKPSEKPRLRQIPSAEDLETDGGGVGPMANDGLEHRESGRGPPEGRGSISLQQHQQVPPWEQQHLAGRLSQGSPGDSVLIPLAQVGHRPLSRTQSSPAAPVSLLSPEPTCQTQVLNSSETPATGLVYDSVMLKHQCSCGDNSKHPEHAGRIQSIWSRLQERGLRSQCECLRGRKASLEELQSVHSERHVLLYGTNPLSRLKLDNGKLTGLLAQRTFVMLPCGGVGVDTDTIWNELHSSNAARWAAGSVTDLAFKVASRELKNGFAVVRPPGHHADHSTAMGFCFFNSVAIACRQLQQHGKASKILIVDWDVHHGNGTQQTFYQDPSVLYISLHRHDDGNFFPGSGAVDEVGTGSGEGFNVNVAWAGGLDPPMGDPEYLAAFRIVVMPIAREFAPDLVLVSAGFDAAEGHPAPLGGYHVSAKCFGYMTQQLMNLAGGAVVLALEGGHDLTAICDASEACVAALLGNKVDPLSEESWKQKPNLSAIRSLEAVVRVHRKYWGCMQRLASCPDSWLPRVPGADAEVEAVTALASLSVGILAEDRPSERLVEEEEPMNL

B1: myosin phosphatase (complex of PP1β and MYPT1) (protein)
chain 1: ADGELNVDSLITRLLEVRGCRPGKIVQMTEAEVRGLCIKSREIFLSQPILLELEAPLKICGDIHGQYTDLLRLFEYGGFPPEANYLFLGDYVDRGKQSLETICLLLAYKIKYPENFFLLRGNHECASINRIYGFYDECKRRFNIKLWKTFTDCFNCLPIAAIVDEKIFCCHGGLSPDLQSMEQIRRIMRPTDVPDTGLLCDLLWSDPDKDVQGWGENDRGVSFTFGADVVSKFLNRHDLDLICRAHQVVEDGYEFFAKRQLVTLFSAPNYCGEFDNAGGMMSVDETLMCSFQILKPSEKKAKYQYGGLNSGRPVTPPRTANPPKKR
chain 2: MKMADAKQKRNEQLKRWIGSETDLEPPVVKRQKTKVKFDDGAVFLAACSSGDTDEVLKLLHRGADINYANVDGLTALHQACIDDNVDMVKFLVENGANINQPDNEGWIPLHAAASCGYLDIAEFLIGQGAHVGAVNSEGDTPLDIAEEEAMEELLQNEVNRQGVDIEAARKEEERVMLRDARQWLNSGHISDVRHAKSGGTALHVAAAKGYTEVLKLLIQAGYDVNIKDYDGWTPLHAAAHWGKEEACRILVDNLCDMETVNKVGQTAFDVADEDILGYLEELQKKQTLLHSEKRDKKSPLIESTANMENNQPQKAFKNKETLIIEPEKNASRIESLEHEKADEEEEGKKDESSCSSEEDEEDDSESEAETDKTKPMASVSNAHTSSTQAAPAAVTAPTLSSNQGTPTSPVKKFPISTTKISPKEEERKDESPASWRLGLRKTGSYGALAEISASKEAQKEKDTAGVMRSASSPRLSSSLDNKEKEKDNKGTRLAYVTPTIPRRLASTSDIEEKENRESSSLRTSSSYTRRKWEDDLKKNSSINEGSTYHRSCSFGRRQDDLISCSVPSTTSTPTVTSAAGLQRSLPSSTSTAAKTPPGSSSAGTQSSTSNRLWAEDSTEKEKDSAPTAVTIPVAPTVVNAAAPSTTTLTTTTAGTVSEVRERRRSYLTPVRDEESESQRKARSRQARQSRRSTQGVTLTDLQEAEKTIGRSRSTRTREQENEEKEKEEKEKQDKEKQEEKKESEASREDEYKQKYSRTYDETYTRYRPVSTSSSSAPSSSSLSTLGSTLYASSQLNRPNSLVGITSAYSRGLAKENEREGEKKEEEKEGEDKSQPKSIRERRRPREKRRSTGVSFWTQDSDENEQERQSDTEDGSSKRETQTDSVSRYDSSSTSSSDRYDSLLGRSASYSYLEDRKPYSSRLEKDDSTDFKKLYEQILAENEKLKAQLHDTNMELTDLKLQLEKATQRQERFADRSQLEMEKRERRALERRISEMEEELKMLPDLKADNQRLKDENGALIRVISKLSK
As for B1, in the data set with HDAC7-GFP fusion protein, the “nuclear exclusion of HDAC7-GFP after siRNA knockdown of myosin phosphatase subunits (immunofluorescence microscopy)” value is “HDAC7 nuclear re-entry was significantly delayed at later time points”.

B2: FLAG-tagged human HDAC7, phosphorylated (from DO11.10-HDAC7-Flag cells treated with PMA or anti-CD3) (protein)
chain: MDLRVGQRPPVEPPPEPTLLALQRPQRLHHHLFLAGLQQQRSVEPMRLSMDTPMPELQVGPQEQELRQLLHKDKSKRSAVASSVVKQKLAEVILKKQQAALERTVHPNSPGIPYRTLEPLETEGATRSMLSSFLPPVPSLPSDPPEHFPLRKTVSEPNLKLRYKPKKSLERRKNPLLRKESAPPSLRRRPAETLGDSSPSSSSTPASGCSSPNDSEHGPNPILGSEADSDRRTHPTLGPRGPILGSPHTPLFLPHGLEPEAGGTLPSRLQPILLLDPSGSHAPLLTVPGLGPLPFHFAQSLMTTERLSGSGLHWPLSRTRSEPLPPSATAPPPPGPMQPRLEQLKTHVQVIKRSAKPSEKPRLRQIPSAEDLETDGGGPGQVVDDGLEHRELGHGQPEARGPAPLQQHPQVLLWEQQRLAGRLPRGSTGDTVLLPLAQGGHRPLSRAQSSPAAPASLSAPEPASQARVLSSSETPARTLPFTTGLIYDSVMLKHQCSCGDNSRHPEHAGRIQSIWSRLQERGLRSQCECLRGRKASLEELQSVHSERHVLLYGTNPLSRLKLDNGKLAGLLAQRMFVMLPCGGVGVDTDTIWNELHSSNAARWAAGSVTDLAFKVASRELKNGFAVVRPPGHHADHSTAMGFCFFNSVAIACRQLQQQSKASKILIVDWDVHHGNGTQQTFYQDPSVLYISLHRHDDGNFFPGSGAVDEVGAGSGEGFNVNVAWAGGLDPPMGDPEYLAAFRIVVMPIAREFSPDLVLVSAGFDAAEGHPAPLGGYHVSAKCFGYMTQQLMNLAGGAVVLALEGGHDLTAICDASEACVAALLGNRVDPLSEEGWKQKPNLNAIRSLEAVIRVHSKYWGCMQRLASCPDSWVPRVPGADKEEVEAVTALASLSVGILAEDRPSEQLVEEEEPMNL
As for B2, the “in vitro dephosphorylation assay (30 minutes at 30° C.), Western blot with phospho HDAC7 antibodies” value in data set [1] is “recombinant PP1 treatment totally abolished the reactivity to the different phospho HDAC7 antibodies”.

The record behind these values is patent US20150024955.
